Reference: the supplement of paper PMC10724198
± gives the standard deviation of the averaged measurements.

test system: Saccharomyces cerevisiae; experiment: protein stability index of tFT-peptide fusion (C-terminal peptide) (PSI (0-1 scale)); higher = more stable (slower turnover); conditions: genetic background: das1 deletion; temperature: 30 C
Method: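 MPS profiling in S. cerevisiae of the yeast C-terminome library: the last 12 aa of each annotated ORF are fused to the C-terminus of a sfGFP-mCherry timer, after a GGGS linker. Cells are FACS-sorted into 8 mCherry/sfGFP bins and deep-sequenced. PSI runs from 0 (unstable) to 1 (stable); wild type and das1Δ backgrounds, two technical replicates each.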

Q: For NRRSDKNLPDAT [STE12 C-terminal 12 aa], which protein stability index is on record?
A: The protein stability index was 0.7085 ± 0.002.

Q: How did the protein stability index turn out when NSEKDQVPILSS [SSK22 C-terminal 12 aa] was run?
A: The protein stability index was 0.702 ± 0.011.

Q: NSTSSKDKKKKN [SES1 C-terminal 12 aa] was tested. Which protein stability index did it give?
A: Its protein stability index is 0.707 ± 0.008.

Q: Which protein stability index does the source give for NTAKATYDLYTN [GPI8 C-terminal 12 aa] here?
A: The protein stability index was 0.686 ± 0.012.

Q: NTQVDDETKKNN [YDC1 C-terminal 12 aa] was tested. Which protein stability index did it give?
A: Its protein stability index is 0.7078 ± 0.0056.

Q: NVDVVTPNSIFI [TMA17 C-terminal 12 aa] was tested. Which protein stability index did it give?
A: The protein stability index was 0.67 ± 0.036.

Q: NVKVKALQRMTW [TIS11 C-terminal 12 aa] was tested. Which protein stability index did it give?
A: Its protein stability index is 0.6967 ± 0.0018.

Q: Which protein stability index does the source give for NVPSFGQDELDQ [MPS3 C-terminal 12 aa] here?
A: Its protein stability index is 0.699 ± 0.016.

Q: For NVTGSANNGTHI [SVS1 C-terminal 12 aa], which protein stability index is on record?
A: The protein stability index was 0.708 ± 0.032.

Q: Which protein stability index does the source give for NYDLQKLYDKID [QDR3 C-terminal 12 aa] here?
A: Its protein stability index is 0.705 ± 0.037.

Q: NYLKKHSEKQDA [ATP19 C-terminal 12 aa] was tested. Which protein stability index did it give?
A: Its protein stability index is 0.709 ± 0.022.

Q: For PEALIKSMTSKL [SPS19 C-terminal 12 aa], which protein stability index is on record?
A: The protein stability index was 0.712 ± 0.038.

Q: With PEKGSGFNTNLG [DCS2 C-terminal 12 aa] as the sequence, how does the protein stability index read?
A: The protein stability index was 0.6973 ± 0.0014.

Q: With PKRGGLFGFGRL [JIP4 C-terminal 12 aa] as the sequence, how does the protein stability index read?
A: Its protein stability index is 0.7853 ± 0.0046.

Q: For PLGEKFLNISNS [TEN1 C-terminal 12 aa], which protein stability index is on record?
A: The protein stability index was 0.7047 ± 0.0035.

Q: PLMTVLGLEKKK [DPC13 C-terminal 12 aa] was tested. Which protein stability index did it give?
A: The protein stability index was 0.703 ± 0.021.

Q: For PLTRFHSCPITA [ECM13 C-terminal 12 aa], which protein stability index is on record?
A: The protein stability index was 0.275 ± 0.035.

Q: PPASESNKGINE [YDR008C C-terminal 12 aa] was tested. Which protein stability index did it give?
A: Its protein stability index is 0.694 ± 0.013.

Q: For PPKSIFDTDDDD [RCN1 C-terminal 12 aa], which protein stability index is on record?
A: Its protein stability index is 0.741 ± 0.025.

Q: How did the protein stability index turn out when PSPGFHMYGCHT [YLR156W C-terminal 12 aa] was run?
A: Its protein stability index is 0.708 ± 0.022.

Q: Which protein stability index does the source give for PSYAKVQEFATP [NEO1 C-terminal 12 aa] here?
A: Its protein stability index is 0.71 ± 0.0097.

Q: How did the protein stability index turn out when PVTPAVSKRYQP [YER084W C-terminal 12 aa] was run?
A: Its protein stability index is 0.715 ± 0.0072.

Q: Which protein stability index does the source give for QAIEDKLNKMSR [BIL1 C-terminal 12 aa] here?
A: The protein stability index was 0.686 ± 0.026.

Q: How did the protein stability index turn out when “QALFVLYYLYSI [YDR406W-A C-terminal 12 aa]” was run?
A: The protein stability index was 0.428 ± 0.018.

Q: For QDKQVKSWWRFW [CBP4 C-terminal 12 aa], which protein stability index is on record?
A: Its protein stability index is 0.762 ± 0.016.

Q: Which protein stability index does the source give for QEANDDLMIDVN [ENP1 C-terminal 12 aa] here?
A: The protein stability index was 0.678 ± 0.045.

Q: How did the protein stability index turn out when QGQKFIHDNNTN [YMR245W C-terminal 12 aa] was run?
A: Its protein stability index is 0.673 ± 0.031.

Q: With QHIKTHKKHGDI [MSN2 C-terminal 12 aa] as the sequence, how does the protein stability index read?
A: Its protein stability index is 0.67783 ± 0.00033.

Q: For QIDKLLTVLDSL [RTP1 C-terminal 12 aa], which protein stability index is on record?
A: Its protein stability index is 0.717 ± 0.023.

Q: QIIYYIARSKGL [MEC3 C-terminal 12 aa] was tested. Which protein stability index did it give?
A: The protein stability index was 0.665 ± 0.058.

Q: QIRSVFSGVYGG [ASP3-1 C-terminal 12 aa] was tested. Which protein stability index did it give?
A: Its protein stability index is 0.691 ± 0.013.

Q: With QKAKLNKLDSKK [NOP7 C-terminal 12 aa] as the sequence, how does the protein stability index read?
A: The protein stability index was 0.677 ± 0.0057.

Q: For QKEPNDQIDVEE [GPN3 C-terminal 12 aa], which protein stability index is on record?
A: The protein stability index was 0.673 ± 0.025.

Q: With QKRIQRKKMNEM [AIM23 C-terminal 12 aa] as the sequence, how does the protein stability index read?
A: The protein stability index was 0.71243 ± 0.0002.

Q: QKYLEELQKKKF [YET2 C-terminal 12 aa] was tested. Which protein stability index did it give?
A: Its protein stability index is 0.712 ± 0.023.

Q: With QLIDIAKKMGIL [BIR1 C-terminal 12 aa] as the sequence, how does the protein stability index read?
A: Its protein stability index is 0.678 ± 0.051.

Q: QLQMILFGKKFK [PET9 C-terminal 12 aa] was tested. Which protein stability index did it give?
A: Its protein stability index is 0.711 ± 0.016.

Q: How did the protein stability index turn out when QNDRRSVLKKYI [YER010C C-terminal 12 aa] was run?
A: The protein stability index was 0.69 ± 0.025.

Q: Which protein stability index does the source give for QNQDEPITENFE [TUB2 C-terminal 12 aa] here?
A: The protein stability index was 0.718 ± 0.016.

Q: QPKIEINVDQYD [SPC1 C-terminal 12 aa] was tested. Which protein stability index did it give?
A: The protein stability index was 0.691 ± 0.047.

Q: For QQPNQNQNQNSK [FIP1 C-terminal 12 aa], which protein stability index is on record?
A: The protein stability index was 0.738 ± 0.049.

Q: QQSPHPVVDNDK [KIP2 C-terminal 12 aa] was tested. Which protein stability index did it give?
A: Its protein stability index is 0.6922 ± 0.0065.

Q: QRIHQTLEVPNL [FAR1 C-terminal 12 aa] was tested. Which protein stability index did it give?
A: Its protein stability index is 0.708 ± 0.01.

Q: Which protein stability index does the source give for QRTVKQEGNKGG [GZF3 C-terminal 12 aa] here?
A: Its protein stability index is 0.712 ± 0.021.

Q: With QSILACCQESNK [LCB1 C-terminal 12 aa] as the sequence, how does the protein stability index read?
A: Its protein stability index is 0.702 ± 0.0093.

Q: With QSPLMDMLAPQL [TOM6 C-terminal 12 aa] as the sequence, how does the protein stability index read?
A: Its protein stability index is 0.706 ± 0.015.

Q: QSQYPDVGIPAI [YAR023C C-terminal 12 aa] was tested. Which protein stability index did it give?
A: Its protein stability index is 0.7082 ± 0.0034.

Q: For QSSHFGQVDEII [DUR3 C-terminal 12 aa], which protein stability index is on record?
A: Its protein stability index is 0.684 ± 0.046.

Q: How did the protein stability index turn out when “QSTAVFFTNKTD [YER076W-A C-terminal 12 aa]” was run?
A: The protein stability index was 0.707 ± 0.018.

Q: How did the protein stability index turn out when QTDGMGLVSWWE [RPC25 C-terminal 12 aa] was run?
A: Its protein stability index is 0.751 ± 0.011.

Q: Which protein stability index does the source give for QTILFAAFLPPA [GPI18 C-terminal 12 aa] here?
A: Its protein stability index is 0.696 ± 0.025.

Q: With QTTFLATAIVLC [YOR331C C-terminal 12 aa] as the sequence, how does the protein stability index read?
A: Its protein stability index is 0.441 ± 0.018.

Q: For QTTRMLNDLIVS [MGA2 C-terminal 12 aa], which protein stability index is on record?
A: Its protein stability index is 0.664 ± 0.01.

Q: For QVHPSRQELSFT [DON1 C-terminal 12 aa], which protein stability index is on record?
A: Its protein stability index is 0.7176 ± 0.0016.

Q: Which protein stability index does the source give for QVTWHKHSPRIQ [YKL202W C-terminal 12 aa] here?
A: The protein stability index was 0.713 ± 0.024.

Q: With RCSETKQQVMNS [BTT1 C-terminal 12 aa] as the sequence, how does the protein stability index read?
A: Its protein stability index is 0.669 ± 0.033.

Q: Which protein stability index does the source give for REGVVPPVGITN [EGO4 C-terminal 12 aa] here?
A: The protein stability index was 0.706 ± 0.031.

Q: How did the protein stability index turn out when “RELREHTKLLHS [YIL082W-A C-terminal 12 aa]” was run?
A: Its protein stability index is 0.6879 ± 0.0029.

Q: For REVDDRFKVIYV [VPS35 C-terminal 12 aa], which protein stability index is on record?
A: Its protein stability index is 0.692 ± 0.018.

Q: How did the protein stability index turn out when RFAKGGKFVEVD [ATP18 C-terminal 12 aa] was run?
A: Its protein stability index is 0.6904 ± 0.001.

Q: With “RFYFLSIFKYII [YBR191W-A C-terminal 12 aa]” as the sequence, how does the protein stability index read?
A: The protein stability index was 0.633 ± 0.023.

Q: With RGRIAAQKRISA [RPL17B C-terminal 12 aa] as the sequence, how does the protein stability index read?
A: The protein stability index was 0.681 ± 0.014.

Q: RHAASLLGMSTK [VPS17 C-terminal 12 aa] was tested. Which protein stability index did it give?
A: Its protein stability index is 0.714 ± 0.0089.

Q: With RHCARVKRSSRL [LYS1 C-terminal 12 aa] as the sequence, how does the protein stability index read?
A: Its protein stability index is 0.778 ± 0.024.

Q: Which protein stability index does the source give for RKEVIDALVSLS [AIM46 C-terminal 12 aa] here?
A: The protein stability index was 0.7011 ± 0.0026.

Q: RKFFSMRSLNSR [CHL1 C-terminal 12 aa] was tested. Which protein stability index did it give?
A: The protein stability index was 0.696 ± 0.014.

Q: RKLFLVVKDNIL [JIP3 C-terminal 12 aa] was tested. Which protein stability index did it give?
A: Its protein stability index is 0.695 ± 0.016.

Q: How did the protein stability index turn out when RKNNKKSISYYG [YOR203W C-terminal 12 aa] was run?
A: The protein stability index was 0.706 ± 0.011.

Q: RKRKQSKSGLLL [NOP8 C-terminal 12 aa] was tested. Which protein stability index did it give?
A: The protein stability index was 0.723 ± 0.024.

Q: Which protein stability index does the source give for RKRLRTLDNWYR [RNH201 C-terminal 12 aa] here?
A: The protein stability index was 0.7355 ± 0.0016.

Q: Which protein stability index does the source give for RLDKATKALEGF [NBA1 C-terminal 12 aa] here?
A: The protein stability index was 0.6942 ± 0.0018.

Q: Which protein stability index does the source give for RLGNLENIKIPK [AIM4 C-terminal 12 aa] here?
A: Its protein stability index is 0.737 ± 0.0074.

Q: RLLSLWEVFQMA [RPC82 C-terminal 12 aa] was tested. Which protein stability index did it give?
A: The protein stability index was 0.646 ± 0.027.

Q: How did the protein stability index turn out when RLNNWLFGWNDL [NUP53 C-terminal 12 aa] was run?
A: Its protein stability index is 0.785 ± 0.012.

Q: RLQAMLNSSSSI [CEF1 C-terminal 12 aa] was tested. Which protein stability index did it give?
A: Its protein stability index is 0.681 ± 0.015.

Q: How did the protein stability index turn out when RLRAKSPYAWDD [YHK8 C-terminal 12 aa] was run?
A: The protein stability index was 0.729 ± 0.0089.

Q: For RLTSRSGSANRA [SAC7 C-terminal 12 aa], which protein stability index is on record?
A: The protein stability index was 0.706 ± 0.028.

Q: RLVRNVELSKEK [MTD1 C-terminal 12 aa] was tested. Which protein stability index did it give?
A: The protein stability index was 0.708 ± 0.028.

Q: RLWSRKEFRLGT [SNU71 C-terminal 12 aa] was tested. Which protein stability index did it give?
A: Its protein stability index is 0.7 ± 0.017.

Q: RMVDKVEGSFSR [YDR109C C-terminal 12 aa] was tested. Which protein stability index did it give?
A: Its protein stability index is 0.7218 ± 0.0071.

Q: How did the protein stability index turn out when RPVLSEEQRKNC [YDR344C C-terminal 12 aa] was run?
A: The protein stability index was 0.668 ± 0.0083.

Q: Which protein stability index does the source give for RQTKAFISKFMT [DBR1 C-terminal 12 aa] here?
A: The protein stability index was 0.7208 ± 0.0027.
